{"source": "paper PMC3575693", "target": "needle protein MxiH (Shigella flexneri) (UniProt P0A223)", "sequence (P0A223 whole entry)": "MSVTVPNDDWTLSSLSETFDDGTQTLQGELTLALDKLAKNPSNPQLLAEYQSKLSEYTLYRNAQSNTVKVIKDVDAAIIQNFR", "test": "co-purification with isolated needles, Western blot", "data": [{"substance": "IpaB (natural protein)", "values": [{"measurement": "% IpaB in needles relative to the complemented strain, in the ipaDL99P strain", "result": 100, "unit": "%"}, {"measurement": "% IpaB in needles relative to the complemented strain, in the wild-type strain", "result": 70, "unit": "%"}]}]}
